Experimental data published in US11453702B2, “Bicyclic peptide ligands specific for Nectin-4” (priority 2018, dated 2022).
*1 amine or outer side, *2 acyl side, *3 side chain or, on linkers, in order; H or OH if unused. Where a SMILES comes first, the peptide text is derived from it. Bridges are numbered along the chain shown (N, C = ends). Roman numbers before positions name the chains, in order. [ ]: non-standard residue; d: D form. The star is where a group is joined. ξ: configuration not given here. TATA = O=C(CC[*:1])N1CN(C(=O)CC[*:2])CN(C(=O)CC[*:3])C1; Dolaproine = CO[C@@H]([C@@H]1CCCN1)[C@@H](C)C(=O)O; X1 = CC[C@H](C)C(C(CC(=O)[*:2])OC)N(C)[*:1]; Dil = CC[C@H](C)[C@H](NC)[C@@H](CC(=O)O)OC; 1Nal = N[C@@H](Cc1cccc2ccccc12)C(=O)O; X3 = O=C(CCCC(=O)[*:2])NCCC(=O)[*:1]; PABC = O=C(OCc1ccc(N[*:1])cc1)[*:2]; X4 = C[C@@H](N*)[C@@H](O)c1ccccc1; Hyp = O=C(O)[C@@H]1C[C@@H](O)CN1; hArg = N=C(N)NCCCC[C@H](N)C(=O)O; Cit = NC(=O)NCCC[C@H](N)C(=O)O; X2 = CC(N*)[C@@H](O)c1ccccc1; NMeV = CN[C@H](C(=O)O)C(C)C; ξNMeV = CNC(C(=O)O)C(C)C; ξV = CC(C)C(N)C(=O)O; Sar = CNCC(=O)O

Assays:
[1] = tested on: MDA-MB-468 cell line; test: HCS assay, Nectin-4 BDC binding study (Example 11); type: cell-based
Method: HCS assay was used in Nectin-4 BDC binding study. Cells were incubated with test agent and then washed. Detection was by a fluorescent antibody to MMAE.

[2] = tested on: NCI-H292 xenograft; test: In vivo efficacy in NCI-H292 xenograft (NSCLC model) in BALB/c nude mice (Examples 1, 5, 9.5); conditions: Ex 1; all treatment animals during the dosing schedule
Excerpt: The animals will be randomized and treatment will be started when the average tumor volume reaches approximately 158-406 mm^3.
The objective of the research is to evaluate the in vivo anti-tumor efficacy of test articles in treatment of NCI-H292 xenograft in Balb/c nude mice.

[3] = tested on: CTG-1771, CTG-1171, CTG-1106 and CTG-0896 PDX models; conditions: all models
Excerpt: To evaluate the antitumor activity of Bicycle Agent in Low Passage Champions TumorGraft Models of Human Breast, Esophageal, and Bladder Cancer in Immunocompromised mice.
Pre-study Animals: When sufficient stock animals reach 1.0-1.5 cm^3, tumors will be harvested for re-implantation into pre-study animals. Pre-study animals will be implanted unilaterally on the left flank with tumor fragments harvested from stock animals. Each animal is implanted from a specific passage lot and documented.
Study Animals: Pre-study tumor volumes are recorded for each experiment beginning seven to ten days after implantation. When tumors reach an average tumor volume of 150-300 mm^3, animals will be matched by tumor volume into treatment or control groups to be used for dosing and dosing initiated on Day 0.

[4] = tested on: HT-1376 xenograft; conditions: 5 mg/kg qw, during the treatment schedule
Method: All data were analyzed using GraphPad Prism 5.0. P<0.05 was considered to be statistically significant.
The objective of the research is to evaluate the in vivo anti-tumor efficacy of test articles in treatment of HT-1376 xenograft in CB17-SCID mice.
The HT-1376 tumor cells were maintained in vitro as a monolayer culture in EMEM medium supplemented with 10% heat inactivated fetal bovine serum at 37° C. in an atmosphere of 5% CO2 in air. The tumor cells were routinely subcultured twice weekly by trypsin-EDTA treatment. The cells growing in an exponential growth phase were harvested and counted for tumor inoculation.
Each mouse was inoculated subcutaneously at the right flank with HT-1376 tumor cells (5×10^6) in 0.2 ml of PBS with matrigel (1:1) for tumor development. Animals were randomized when the average tumor volume reached 153-164 mm^3. The test article administration and the animal numbers in each group were shown in the experimental design table.
The HT-1376 tumor cells will be maintained in EMEM medium supplemented with 10% heat inactivated fetal bovine serum at 37° C. in an atmosphere of 5% CO2 in air. The tumor cells will be routinely subcultured twice weekly. The cells growing in an exponential growth phase will be harvested and counted for tumor inoculation. […]

[5] = tested on: NCI-H526 xenograft; conditions: 5 mg/kg biw (so in the source)
Method: (§1) The major endpoint was to see if the tumor growth could be delayed or mice could be cured. Tumor volume was measured three times weekly in two dimensions using a caliper, and the volume was expressed in mm^3 using the formula: V=0.5 a×b^2 where a and b are the long and short diameters of the tumor, respectively. The tumor size was then used for calculations of T/C value. The T/C value (in percent) is an indication of antitumor effectiveness; T and C are the mean volumes of the treated and control groups, respectively, on a given day.
(§2) TGI was calculated for each group using the formula: TGI (%)=[1−(Ti−T0)/(Vi−V0)]×100; Ti is the average tumor volume of a treatment group on a given day, T0 is the average tumor volume of the treatment group on the day of treatment start, Vi is the average tumor volume of the vehicle control group on the same day with Ti, and V0 is the average tumor volume of the vehicle group on the day of treatment start.
(§3) A one-way ANOVA was performed to compare tumor volume among groups, and when a significant F-statistics (a ratio of treatment variance to the error variance) was obtained, comparisons between groups were carried out with Games-Howell test. All data were analyzed using GraphPad Prism 5.0. P<0.05 was considered to be statistically significant. […]

[6] = BCY8245 (BT8009) injected at 3 mg/kg; MDA-MB-468 xenograft animals
Method: At various timepoints, animals were euthanized and plasma and tumour taken and snap frozen. Samples were analysed for MMAE.

[7] = tested on: A549 xenograft; test: In vivo efficacy in A549 xenograft in Balb/c nude mice (Example 9.1); conditions: mouse
Method: as §1, §2, §3

Row | Compound | binding affinity (Kd) on MDA-MB-468 cell line (in words) [1] | retention on the cells (in words) ([1]; MDA-MB-468 cells, detection by fluorescent antibody to MMAE) | bodyweight (in words) [2] | tolerability compared with Docetaxel (in words) [3] | animal bodyweight loss [4] | animal bodyweight loss [5] | retention of MMAE in tumour versus plasma (in words) [6] | bodyweight (in words) [7]
1 | CC[C@H](C)[C@@H]([C@@H](CC(=O)N1CCC[C@H]1[C@H](OC)[C@@H](C)C(=O)N[C@H](C)[C@@H](O)c1ccccc1)OC)N(C)C(=O)[C@@H](NC(=O)[C@@H](NC)C(C)C)C(C)C [MMAE, Monomethyl auristatin E] (H-[NMeV]V[Dil][Dolaproine]-X4) | almost no detectable binding affinity | minimal retention |  |  |  |  |  | 
2 | CC[C@H](C)C(C(CC(=O)N1CCC[C@H]1[C@H](OC)[C@@H](C)C(=O)NC(C)[C@@H](O)c1ccccc1)OC)N(C)C(=O)[C@@H](NC(=O)C(C(C)C)N(C)C(=O)OCc1ccc(NC(=O)[C@H](CCCNC(N)=O)NC(=O)C(NC(=O)CCCC(=O)NCCC(=O)N(C)CC(=O)N(C)CC(=O)N(C)CC(=O)N(C)CC(=O)N(C)CC(=O)N(C)CC(=O)N(C)CC(=O)N(C)CC(=O)N(C)CC(=O)N(C)CC(=O)N[C@H]2CSCCC(=O)N3CN4CN(C3)C(=O)CCSC[C@H](NC(=O)[C@@H](CC(=O)O)NC(=O)[C@H](Cc3cccc5ccccc35)NC(=O)[C@@H]3CCCN3C2=O)C(=O)N[C@@H](CCSC)C(=O)N[C@@H](CCCCNC(=N)N)C(=O)N[C@@H](CC(=O)O)C(=O)N[C@@H](Cc2c[nH]c3ccccc23)C(=O)N[C@@H](CO)C(=O)N[C@@H]([C@@H](C)O)C(=O)N2CCC[C@H]2C(=O)N2C[C@H](O)C[C@H]2C(=O)N[C@@H](Cc2c[nH]c3ccccc23)C(=O)N[C@H](C(N)=O)CSCCC4=O)C(C)C)cc1)C(C)C (stereo partly drawn) [BCY8245, MMAE-PABC-Cit-Val-Glutaryl-BCY8234] (I: [Sar][Sar][Sar][Sar][Sar][Sar][Sar][Sar][Sar][Sar]CP[1Nal][dD]CM[hArg]DWSTP[Hyp]WC-NH2 / II: [ξV][Cit][PABC][ξNMeV]V[X1][Dolaproine]-X2; linker I:11-I:15-I:25 via TATA; linker I:N-II:N via X3) |  |  | continued bodyweight loss | better tolerated than Docetaxel | over 10% | over 10% | MMAE was retained in the tumour longer than in plasma | maintained the bodyweight well
